Reference: a protein production outcome set (Wang et al. 2014)

Experiment: label from the status in PepcDB records
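Further: failed if final PepcDB status was selected cloned or expressed and not failed if soluble or beyond.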

Sequence | protein production
MRIQMATKSSKKYKGVYCDNKGKIFYQIDLGIDPVTGKRVQKKARKNQYGKTFETMKEAYDELVRIKYEFANKVHLENYNMTFENYMNTIYLRAYKQKVQSVTYKTALPHHKLFIQYFGSKPLKAITPRDCEAFRLHIIENYSENYAKNLWSRFKACMGYAERLGYISDMPCKALDNPRGKHPETPFWTYAEFQTFIKSFDLHDYEELQRFTAIWLYYMTGVRVSEGLSLCWEDIDFDKKFLKVHTTLEKDENGNWYRKDQTKTPAGERLIELDDITIEVLQVWRKNQFANQDTDFIISRFGDPFCKSTICRIIKRKAQQVGVPVITGKGLRHSHASYLINVLKKDILYVARRMGHADKSTTLNTYSHWFNALDKTVSEEITQNIKSAGLDSILCQNSCQTSN | failed
MRMEDEDYNTSISYGDEYPDYLDSIVVLEDLSPLEARVTRIFLVVVYSIVCFLGILGNGLVIIIATFKMKKTVNMVWFLNLAVADFLFNVFLPIHITYAAMDYHWVFGTAMCKISNFLLIHNMFTSVFLLTIISSDRCISVLLPVWSQNHRSVRLAYMACMVIWVLAFFLSSPSLVFRDTANLHGKISCFNNFSLSTPGSSSWPTHSQMDPVGYSRHMVVTVTRFLCGFLVPVLIITACYLTIVCKLQRNRLAKTKKPFKIIVTIIITFFLCWCPYHTLNLLELHHTAMPGSVFSLGLPLATALAIANSCMNPILYVFMGQDFKKFKVALFSRLVNALSEDTGHSSYPSHRSFTKMSSMNERTSMNERETGML | failed
MKKDFASVTPAGKKTSVRWFIVFMLFLVTSINYADRATLSITGDSVQHDLGLDSVAMGYVFSAFGWAYVIGQLPGGWLLDRFGSKTIIALSIFFWSFFTLLQGAIGFFSAGTAIILLFALRFLVGLSEAPSFPGNGRVVASWFPSSERGTASAFFNSAQYFAIVIFPPLMGWLTHSFGWHSVFVVMGIAGILLAVIWLKTVYEPKKHPKVNEAELAYIEQGGGLISMDDSKSKQETESKWPYIKQLLTNRMLIGVYIAQYCITTLTYFFLTWFPVYLVQARGMSILEAGFVASLPALCGFAGGVLGGIVSDILLKKGRSLTFARKVPIIAGMLLSCSMIVCNYTDSAWLVVVIMSLAFFGKGFGALGWAVVSDTSPKECAGLSGGLFNTFGNIASITTPIIIGYIVNATGSFNGALVFVGANAIAAILSYLLLVGPIKRVVLKKQEQDPDQSLPV | failed
MRQYMRTFLLVAVIFVFGFSIRMLNAGYDDPLYTDDDGLQYFQESDSYYNYRLTENLAIRGIPGDAVIGGKIWDLHSYYPPGVPLDYPAGILLLAVILHAITGVIAPVSLRAVCLIMPPLLAPLAGVICFFTVKRFQGDIPAFIAGLLLVSAPFYLVKTVYGLYDTDMLILTLSMAVLFLFIEADAREVNRVPLSAIGGFILFLFSITWSGWQVMFYVTLVTFIILILTSGSRKPLRNILGNIPTGLHGSVYPFNLFNHLELIKLIMTPLHIHDLVDKSIWYPWPDSYTTVAELQPAYMDKVLGHISPALTVLGAAGIPAYYMLYRRKGSVGLPVIFISVWIATGALMLLEGIRFVMILIAPLSVSAGIFTGILLDCSRKFRFRWIKGVLFILIIFTVSAQLAISGNMVADLKPGYNDYFEESAHWIAENTPSDAVIITEWSYGHFYASEADRPVVYDGRLAYIETLPARGVWYGSSMDPEIPTTARDYWINLSLSSENRTLSLNILRMLANSGDDAYILLKNQTGSEVQAYRIMNEILGLNRESAMDVLMHRYGFSESEALRILNMTHPMTSRKIVVVVPEKMIGLIASKGDSGDMPAGTYSLIRLKDDVIEEEIINSSGNVTVLETTDGSYRINRKYRKSLLLELIMGVNDENFSLVYRNKQIKVYIINS | failed
MRGLRSESKVLELVVIPADHSIAELLKMKENEPVNKLVRVRYAEGEPLQYHTSYIPWKAAPGLAQEECTGSLFELLRTKYNIEISRGTESIEPILTDETISGHLLTNVGAPAFLSESLTYDKNEEVVEYAQIITRGDRTKFTVEQSYHS | failed
MGKVYRTSQMAASILVNAIYAMKNFPITLVNTLLSPLSFLLVITLASHGRLLSVSVGGALIMSMISSGIGLQGDLSHLKNDFKLQDMVVSSPTTASVYLIGMAISEIVYSIPALAVLGVHASIYIHTTVVGVFQIVAVMVLMFSFSILLGFTLATITYDIIQSWAFSGIISTLISTIPPVYYPITYIPMPFRYAAYASPTTYGAELVQSAIGFVHLSGASFIVDWVILIMINVVFFIIALKKARWREI | failed
KGDDNYYIIFTSGTTGQPKGVQISHDNLLSFTNWMIEDAAFDVPKQPQMLAQPPYSFDLSVMYWAPTLALGGTLFALPKELVADFKQLFTTIAQLPVGIWTSTPSFADMAMLSDDFCQAKMPALTHFYFDGEELTVSTARKLFERFPSAKIINAYGPTEATVALSAIEITREMVDNYT | failed
MSTELIAAVEAADSAEGLVRAVAALSAARTDAAIPTLISVLAFNNPGAAVVAVDGLIQLGSPAAQAILNNLDDYNYGARAWALRALAGIGEPAALPLLLSAAREDFSLSVRRAATYGLGRVRWADLSESDRLAQQQQCYETLKLCLQYDPEWVVRYAAAAALETLAPAATQLQSAIAETLNRQAHSDEERAVQARSRLAERRLAGGVLEHHHHHH | not failed
MAEPGIDKLFGMVDSKYRLTVVVAKRAQQLLRHGFKNTVLEPEERPKMQTLEGLFDDPNAETWAMKELLTGRLVFGENLVPEDRLQKEMERIYPGEREE | not failed
MMLSSNSFSLNLSNEDYIWPLEEDQEETTDSSGPMMLSPPLPEGACFNFEDRNTVYVHSRRPEDTPKSFELYSIPEDLALDSPFPSCEQTTFFTTKPDKSFLLDIKNSSPLNIGRMQNSRS | not failed
MKRAVVVFSGGQDSTTCLIQALQDYDDVHCITFDYGQRHRAEIEVAQELSQKLGAAAHKVLDVGLLNELATSSLTRDSIPVPDYDANAQGIPNTFVPGRNILFLTLASIYAYQVGAEAVITGVCETDFSGYPDCRDEFVKALNQAIVLGIARDIRFETPLMWLNKAETWALADYYQQLDTVRYHTLTCYNGIKGDGCGQCAACHLRANGLAQYQKDAATVMASLKQKVGLR | not failed
MTTDIDLEQGGAFGYHRRSLDGSDVSVYYSDGEDVMSCYSYFYSTTGGSYEYEGDQSRKVSSVMSPSSSEIDDDDATAPPEKDCRICHLGVETSGGGAIELGCSCKDDLAVAHRQCAETWFKIKGDKTCEICQSVARNVGGANEMVGSTMEERELRNGEETAAGEGGGATVVENRWQPQRVVNLVLACMVFGFFISWIFHFHVSSSS | failed
MYIPKYFKVTNAEEIWNFVQENSFGTVVTTEQGKPIATHLPLGFNKKDDHYYITGHFAYGNPQWRTFEACEDVLVMFQGPHAYISSSWYSRENVPTWNYQAVHMYGKASMLEKDELAEELTIMLEQKTPTQAFSVLWDKLSPKLLESELKGIVGFKIKVEDIQAAYKLSQNRNETDYMNVIEQLQNEENPNAKQMAELMEDKLKKQI | not failed
VEIRTGEFEDVAGITDIFNFYIEHTNARFEEFPFTLENREEWFSQFSRTTKYQIYVAVENGVLQGFACSQKYRAIPAFDDTVEVSVYLAQEAKGKGLGSKLYTQLFSSIRAYGVHRILSGVALPNDASVALHKRFGFREVGIFNEYAKKHGQYISSVWLEKALNVESAL | not failed
SAAPVDLELKKAFTELQAKVIDTQQKVKLADIQIEQLNRTKKHAHLTDTEIMTLVDETNMYEGVGRMFILQSKEAIHSQLLEKQKIAEEKIKELEQKKSYLERSVKEAEDNIREMLMARRAQ | failed
MPHSTTEPRRDMPDALISIVIPCRNEAANLPLLIDEIEAAMAGRHFELIIVNDGSTDETAAVLTEQAALRSFPVRELRHQKSAGQSLSVRSGAWAARGGIVATIDGDGQNDPQYIPVLVDALRQAGPDFGAAQGQRLKRRDSKVKQLASRFANWLRNAILHDETRDTGCGLKAVHTEILRKLPFFDGTHRFVPALVIQEGYRVVHCDVVDRSRRHGKSNYGIFDRGLQGALDLGGVWWLRRRRRRMPKVEEIKRV | failed
MNLYFRLFWLLFWRTRHCRKIDFLGTSRITYRALPSDCDINFHLTNSRYPAFMDLARTYMLAEMGLLKRFLKLKWMPIVNAAEFTYIRDIKPLKKFEIETKVVGWDEKYFYIEQRFISERGLHCIVHVRGVFVCKGKQIPLEVLVKEAGYTAPAPELPPEVVKWKAFLQLKKERNL | failed
MDISLLSTTSDPEQLRALAIAMVQKVMAENAELQNRIRILEEQMKLARQQRFGKKCESLAGMQRSLFEEDVDADIAEISAHLDKLLPQTGDEEKTTTRPVRKPLPSPLPRAEKVIPPAEERCPDCDAPLHFIRDEVSEKLEYIPAQVVVNRYIRPQYSCPCCEKVFSGKMPAHILPKSAVEPSVIAQVVISKYTDHLPLYRQQHIFSRMGVELPVSTMADMVGVAGAALAPLAKLLRHELLTRDVIHADETSLRLLDTRKGGKSCSGWLWAYVSGERVSVNGAPY | failed
NQTRLNKLQKTLVDKQIDFAFISDYKTIQYITGFGSNPYERILAMIVFADKDPFIFAPALEVEVVKSVGWPYDLYGYQDNEDGLEMIYDHIKERSANPKKIATEQGNLTLSRFNRLQAAFPDADYSFNLTPVIEHQR | not failed
MVREGFDVTLVEARERGGLETSYANGGQLSYRYVAPLADSGVPAQALGWLLRNDAPLRLRPRLDPAQWRWLLGFLAACRGSLNRRNAAHLLRLALLSQRTLQDWREEDGLDGFDWRRNGKLVAFRQPASFARARQGLADPSAQFVLTAAECLALEPALSAAPFVGGIHTPDEEVADCHAFCVQLAERLQASGHCRQLHGRRVTKIVEGGAAVRGVEVGGDLIEADHVVLAAGYRSAELMLPGLRLPLYPLKGYSLTLPVGAQHRAPDTSITDYDRKIVYARIGERLRIAAMVDIVGFDPGLEPARLALLRQQARDTFPQGGDFDAAVEWAGMRPATPTGVPLVGNGGYRNLWLNLGHGALGFTLACGSGRLLAEQIGRRPPSIDTTGLLPRGALAG | failed
MGHHHHHHSHMGRGKGPAAEEPLSLLDDMNHCYSRLRELVPGVPRGTQLSQVEILQRVIDYILDLQVV | not failed
MAHKKGLGSTRNGRDSQAKRLGVKRYEGQVVRAGNILVRQRGTRFKPGKNVGMGRDFTLFALVDGVVEFQDRGRLGRYVHVRPLA | not failed
TRKVLVLDLDNTLWGGVIGDDGIEGIVIGEGSARGEAFKAFQLYCRALRERGILLAVSSKNDPERALAAFDHPEMVLRRSDFAAFVANWEDKGQGLQRIAQELNLGLEALVFFDDNPAERALLREQFPAVAVPEVPEEPETYIRCLAAAGLFEAV | failed
PPEAYSLDTAIFVLETRDYRLSDVKEIDSYGDVEMKGKVAVFETEYGPVFLYVYKGEEAKKIWKKLNGRAGFVSIRSVLDLPNMGKFSTVSNGKKIVAWWRKNWLFIVEGKNGVEEFVKHVYRVYEEMKQ | not failed
MSPLASRALSFLGALSLLTFAATPVLAESTPTAAPPQFAVESPKAASSLLLSVAHAGKRLVAVGDRGHILLSDDDGKTWTQAKVPTRQLLTSVFFVNERKGWAVGHDAQILVSDDAGSTWARQFEDLGREAPLLDIWFADEQHGLAVGAYGALLETRDGGQHWEDVSERLDNEDQFHLNAIAAVKDNGLLVVGEAGSLFRSKDWGATWEKLEGPYEGSLFGAIGTADAGGVLVYGLRGHLFRSADFGDSWEEIPLKAASGDLEFGLSDGALLADGRIVVVGHGGSVLESTDGGRSFSVFNRPDRLSLAGVSATGDGHLILVGQGGVHLAAANGAALEQQQLEHHHHHH | failed
MGHHHHHHSHMNSCILQATVVEAPQLRYTQDNQTPVAEMVVQFPGLSSKDAPARLKVVGWGAVAQELQDRCRLNDEVVLEGRLRINSLLKPDGNREKQTELTVTRVHHLTLDSATGI | failed
